Laboratory results: the supplement of paper PMC10567573
± gives the standard deviation.

Assay: protein stability index of a GFP-peptide fusion (GPS, HEK-293T) (PSI 1-6); higher = more stable
[1] = treatment: DMSO, c terminus: a fixed tail appended
[2] = treatment: MLN4924 1 uM, 8 h, c terminus: a fixed tail appended
[3] = treatment: DMSO, c terminus: native
[4] = treatment: MLN4924 1 uM, 8 h, c terminus: native
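Further: 24-mer peptide tiles fused after GFP, lentivirally expressed, FACS-sorted into six equal bins by GFP/DsRed ratio, decoded by Illumina sequencing, PSI is the read-weighted mean bin number.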

| Sequence | protein stability index [1] | protein stability index [2] | protein stability index [3] | protein stability index [4] |
| --- | --- | --- | --- | --- |
| RGENVVLLGEIDLEKESDTPLQQV [LSM1] | 4.96 ± 0.27 | 4.79 ± 0.18 | – | – |
| RGKNKMAAQNCRKRKLDTILNLER [NFE2L1] | 3.57 ± 0.33 | 3.63 ± 0.24 | – | – |
| ARRQHLKSVMLQIAATELEKEESR [TNNI2] | 4.31 ± 0.23 | 4.36 ± 0.33 | – | – |
| NQRIIHRDMKPDNILLDEHDTWLS [STK32A] | 3.71 ± 0.33 | 3.63 ± 0.27 | – | – |
| ALHSLTQAGDYSMRVDLRAGDEAV [TNXB] | 3.39 ± 0.57 | 3.6 ± 0.49 | – | – |
| WRRSGKYVYKPVMNQTCCPQYTIR [ATE1] | 2.03 ± 0.22 | 2.32 ± 0.32 | – | – |
| TSGVAAVQDWYHFHYVDILALLPA [SCNN1D] | 2.42 ± 0.44 | 2.35 ± 0.24 | – | – |
| LSVDPEEEREEGPPRIPQADQWKS [RHOBTB1] | 5.28 ± 0.075 | 5.26 ± 0.24 | – | – |
| WGFRLVGGRDFSAPLTISRVHAGS [PDLIM4] | 2.02 ± 0.24 | 2.17 ± 0.32 | – | – |
| ALSGKYSREFFNRRGELRHITKLK [SRPK2] | 2.87 ± 0.15 | 3.28 ± 0.27 | – | – |
| LLDHNANIDIQNGFLLRYAVIKSN [ASB7] | 2.53 ± 0.17 | 2.14 ± 0.2 | – | – |
| YEAIAKHNQVEAAWLEGRIRQEFD [TRIM35] | 3.9 ± 0.25 | 3.85 ± 0.18 | – | – |
| DETHPYTVTSVSCCHGNTLLAVRS [NEK8] | 2.47 ± 0.12 | 2.67 ± 0.076 | – | – |
| QFQDLTGIESMDQCRHTLEQHNWN [FAF2] | 3.1 ± 0.38 | 3.37 ± 0.13 | – | – |
| LLVFLILVGIFILAVSRPRSSPDD [SCARA5] | 2.08 ± 0.43 | 2.07 ± 0.19 | – | – |
| SSTQLNELLLFAVGFIMAGTPMAL [OR3A1] | 3.05 ± 0.3 | 3.04 ± 0.61 | – | – |
| IFGSNKWTTEQQQRFHEICSNLVK [ARL6IP1] | 2.98 ± 0.13 | 3.03 ± 0.14 | – | – |
| DIVWGKIHGFPWWPARVLDISLGQ [PWWP2B] | 2.7 ± 0.86 | 2.38 ± 0.42 | – | – |
| IAKNLVEKGILTTEKQNFLLFDMT [GOLPH3L] | 2.06 ± 0.18 | 2.15 ± 0.22 | – | – |
| AVQRLEGALWGLQAQAVQTEQAVA [SCARA5] | 2.89 ± 0.19 | 3.01 ± 0.34 | – | – |
| VPWLNLKKQDENEGIKVEDLLFIV [CEP70] | 1.97 ± 0.42 | 2.26 ± 0.22 | – | – |
| SRLQEDPEGTENPLGVDESLFSYG [SLA] | 4.91 ± 0.058 | 4.66 ± 0.69 | – | – |
| GDVHTVRKMLEQGYSPNGRDANGW [ASB7] | 3.51 ± 0.23 | 3.71 ± 0.24 | – | – |

| Sequence | protein stability index [1] | protein stability index [2] | protein stability index [3] | protein stability index [4] |
| --- | --- | --- | --- | --- |
| GGYAIAVVLLQGAELLLAARLLGA [TSPAN10] | 2.81 ± 0.53 | 2.96 ± 0.32 | – | – |
| AEEYEDSSTKPPKSRRKAALSSPR [INTS3] | 5.23 ± 0.12 | 5.27 ± 0.27 | – | – |
| RSQSSIVPEEEQAANKGEEKKDDE [SMARCE1] | 5.63 ± 0.25 | 5.68 ± 0.14 | – | – |
| KGAVPRSIPNLAEVKKKGKMKKLG [HDAC6] | 4.51 ± 0.36 | 4.35 ± 0.5 | – | – |
| VEAMYCYLRCIQSEVSFEGAYGNL [SMG5] | 3.13 ± 0.35 | 3.12 ± 0.63 | – | – |
| QKLNVFKNFIGLLQNQNFPYPVLF [NLN] | 2.89 ± 1.1 | 2.76 ± 0.46 | – | – |
| STCHAYSNTRDRYGRSWESYSSCG [RBMY1A1] | 2.29 ± 0.16 | 2.47 ± 0.37 | – | – |
| IHLREDLVQDQDLEAIRKQDLVEL [ZER1] | 4.5 ± 0.096 | 4.56 ± 0.28 | – | – |
| VWMLMLLLAVPNIILTNQSVREVT [P2RY14] | 3.27 ± 0.3 | 2.96 ± 0.46 | – | – |
| AVIDSEKDMNFLKRYAGREEHWVG [CD69] | 2.72 ± 0.39 | 3.08 ± 0.29 | – | – |
| QVDVGDVNDNAPEVLLASLANPVL [PCDHGC5] | 4.07 ± 0.28 | 4.21 ± 0.31 | – | – |
| EALSVPLSLCVSSHLALPAQHHWE [CLPTM1] | 2.15 ± 0.27 | 2.2 ± 0.29 | – | – |
| PHQCSECGRAFSRKSLLVVHQRTH [ZNF649] | 4.93 ± 0.2 | 5.12 ± 0.16 | – | – |
| ARLNGSVASYILASHNGISYKDLD [TENT5D] | 2.85 ± 0.47 | 2.68 ± 0.21 | – | – |
| NMAGVTFRKFIPKCSKIVIDFDSI [DCTD] | 2.5 ± 0.39 | 1.95 ± 0.32 | – | – |
| DSPSKEEVFRFVQSCARAVVPSYI [CPOX] | 2.48 ± 0.55 | 2.5 ± 0.32 | – | – |
| SAIYKWITDNFCYFRHADPTWQNS [FOXJ1] | – | 2.57 ± 0.4 | – | – |
| VAGVLPDIEQFFNIGDSSSGLIQT [SPNS1] | 3.16 ± 0.25 | 3.32 ± 0.43 | – | – |
| RQWPTKSQTDRGASAGKRRCFWLG [SDE2] | 2.9 ± 0.24 | 3.19 ± 0.58 | – | – |
| CTRDCMSFSVLNWDQVSRLHEVLT [TENT5C] | 2.13 ± 0.35 | 2.37 ± 0.23 | – | – |
| VVGNWQYFFPVIFSKASSSLQLVF [MAGEA3] | 3.28 ± 0.46 | 3.11 ± 0.55 | – | – |
| LYPREGKYNHAACFGLQPGCLLPD [NLN] | 2.96 ± 0.33 | 3.1 ± 0.44 | – | – |
| VLRTWRTNLPKGACALLLTSVDHD [DLC1] | 2.26 ± 0.66 | 2.44 ± 0.39 | – | – |

| Sequence | protein stability index [1] | protein stability index [2] | protein stability index [3] | protein stability index [4] |
| --- | --- | --- | --- | --- |
| IFDEDHDEMVIVKDIDMFSMCEHH [GCH1] | 3.16 ± 0.24 | 3.31 ± 0.13 | – | – |
| VGLVTNQLSHIKAKIRAKIPGTGA [RTN2] | 2.79 ± 0.16 | 2.9 ± 0.11 | – | – |
| SNWYITFQSDTDAQQAFILKRRS [LARP4] | – | – | 2.93 ± 0.3 | 2.21 ± 0.41 |
| HFTAMVWKNTKKMGVGKASASDGS [GLIPR2] | 3.2 ± 0.14 | 3.36 ± 0.36 | – | – |
| KFSGLYILSFTVIMVGFILYCSTP [SLC35F2] | 3.22 ± 0.4 | 3.17 ± 0.24 | – | – |
| PVCRKTSRYRSLRPNRQLGSMVEI [TRIM39] | 2.61 ± 0.15 | 2.83 ± 0.089 | – | – |
| AWFGFAGTPGYLSPEVLRKDPYGK [CAMK2A] | 2.46 ± 0.2 | 2.88 ± 0.34 | – | – |
| LVQVESVNLQVATYSKFQPQSPDF [UFD1] | 2.32 ± 0.22 | 2.35 ± 0.32 | – | – |
| ASLKSEAESLKGKLEEERAKLHDV [GNB5] | 5.32 ± 0.11 | 5.26 ± 0.32 | – | – |
| SVPLDPMERPMSQADLELDYNPPR [CBY2] | 4.75 ± 0.6 | 4.98 ± 0.23 | – | – |
| EYVAIKLEPMKSRAPQLHLEYRFY [CSNK1G3] | 3.3 ± 0.41 | 2.93 ± 0.64 | – | – |
| LQAQVQYQQQHEQQKKDLEILHQQ [SASS6] | 4.73 ± 0.14 | 4.93 ± 0.19 | – | – |
| LVVAVAAVSCVFLAFVIVLLAHRL [PCDHGA10] | 2.9 ± 0.83 | 2.83 ± 0.15 | – | – |
| VPECRLAEDLGNLWENTRFTDCSF [SPOPL] | 2.74 ± 0.34 | 3.21 ± 0.44 | – | – |
| LCAIAGVLTIALPVPVIVSNFNYF [KCNA1] | 3.23 ± 0.18 | 3.04 ± 0.32 | – | – |
| CLAHLGEKVSQELKEPLHKALQML [BCL2L13] | 2.26 ± 0.28 | 2.16 ± 0.26 | – | – |
| MIRESETKKGFYSLSVRHRQVKHY [SLA] | 2.59 ± 0.44 | 2.94 ± 0.13 | – | – |
| VAACTKEIDTQGRHLAHSMLQRAI [C10orf62] | 2.86 ± 0.41 | 2.9 ± 0.14 | – | – |
| LRQQLVVSKELRMYDEKAHEWKSL [KLHL13] | 2.93 ± 0.11 | 2.98 ± 0.15 | – | – |
| RYCDSILREMLSKKHAAYAWPFYK [BRD3] | 2.07 ± 0.48 | 2.02 ± 0.26 | – | – |
| QRLDYEREIQPTAILSLDQIKAIR [SPRY1] | 3.7 ± 0.061 | 3.87 ± 0.24 | – | – |
| GKLKAPPKPCAGNQGTQITVEDLF [MLH1] | – | 3.65 ± 0.42 | – | – |
| ISENLDYEETGFYEIEIQAEDGGA [PCDHGA10] | 4.74 ± 0.18 | 4.7 ± 0.2 | – | – |

| Sequence | protein stability index [1] | protein stability index [2] | protein stability index [3] | protein stability index [4] |
| --- | --- | --- | --- | --- |
| TSEGTLELQQRNPKAERLRWSPAQ [ZNF232] | 4.27 ± 0.19 | 4.25 ± 0.15 | – | – |
| LSKEYWDCLEGKKSKHAPRGTHLW [ELF3] | 2.82 ± 0.45 | 3.17 ± 0.24 | – | – |
| VGKTRLICARACNATLTQYQLLAT [RHOBTB2] | 2.28 ± 0.34 | 2.17 ± 0.31 | – | – |
| NPIIYSFRNPDVQSAIWRMLTGRR [OR3A1] | 2.51 ± 0.41 | 2.58 ± 0.36 | – | – |
| FSGRMEVLTDSEGWILIDRCGKHF [KCTD10] | 2.57 ± 0.28 | 2.77 ± 0.4 | – | – |
| EAFQIVLSHLLGDAGSPYLIGLIS [SPNS1] | 3.11 ± 0.37 | 2.98 ± 0.41 | – | – |
| TNSTPLRAACFDGHLEVVRYLVGE [FEM1A] | 2.32 ± 0.18 | 2.4 ± 0.31 | – | – |
| CEKYLPGYYSEKLEAIQLDGEILF [TBC1D10A] | 2.14 ± 0.19 | 2.12 ± 0.24 | – | – |
| MLENYSNLVSVGYQAGKPDALTKL [ZNF649] | 2.72 ± 0.2 | 2.83 ± 0.18 | – | – |
| PRKRHREDSDVEMVEDDSRKEMTA [MLH1] | 5.43 ± 0.25 | 5.49 ± 0.18 | – | – |
| MVVIHKEIPTGKKDHECSECGKTF [ZNF232] | 3.07 ± 0.4 | 3.28 ± 0.2 | – | – |
| LGRFSLTPAEGDTEEDDGFVDILE [CDC25B] | 4.66 ± 0.74 | 5.06 ± 0.1 | – | – |
| CQVFPERLAQGNPQQGFFSSFFTC [ATP23] | 2.07 ± 0.29 | 2.14 ± 0.33 | – | – |
| AVVKPGNTKEKIAFFASHQCSNRI [FBXO34] | 3.81 ± 0.24 | 3.83 ± 0.35 | – | – |
| CRADHGLLLERAAAGSPRSPGPLP [ISL2] | 3.47 ± 0.46 | 3.1 ± 0.43 | – | – |
| QQLNDYEQLLDVKLALDMEISAYR [LMNB1] | 2.95 ± 0.32 | 2.9 ± 0.31 | – | – |
| CRGNQHDVPVIPLDVVDNQTEKLD [CASP6] | 5.05 ± 0.26 | 5.03 ± 0.13 | – | – |
| EDPSFWDCFCFTEEIPIRNGTKS [AASDHPPT] | – | – | 3.92 ± 0.12 | 4.22 ± 0.22 |
| VLLMKDRETNKSRGFAFVTFESPA [RBMX] | 2.06 ± 0.47 | 2.2 ± 0.41 | – | – |
| GGGFGGGSCQLGGGRGVSTCSTRF [KRT13] | 3.5 ± 0.17 | 3.59 ± 0.21 | – | – |
